In patent US20240166765A1 (ICONIC THERAPEUTICS, published 2024):
Numbering of substitutions follows the chain as printed.

How the values were obtained:
[1] = biological target: T1, human Tissue Factor on MDA-MB-231 cells (human, UniProt P13726 33-295); assay: cell-based or functional assay
[2] = biological target: T1, human Tissue Factor on MDA-MB-231 cells; assay: flow cytometry, MDA-MB-231 cells; binding of 20 nM FVII-Fc-Alexa488 (competitor) left at 83 nM Ab
[3] = biological target: T1, human Tissue Factor on MDA-MB-231 cells; assay: flow cytometry, MDA-MB-231 cells; binding of 20 nM FVII-Fc-Alexa488 (competitor) left at 250 nM Ab
[4] = biological target: T1, human Tissue Factor on MDA-MB-231 cells; assay: flow cytometry, MDA-MB-231 cells; binding of 20 nM FVII-Fc-Alexa488 (competitor) left at 9.25 nM Ab
[5] = biological target: T2, Macaca mulatta TF on RF/6A cells (Macaca mulatta, UniProt P13726 33-294 (human entry)); assay: flow cytometry on Macaca mulatta RF/6A cells
T2 construct: also called TF-positive Macaca mulatta RF/6A cells; cynomolgus TF (cTF)
T2 chain: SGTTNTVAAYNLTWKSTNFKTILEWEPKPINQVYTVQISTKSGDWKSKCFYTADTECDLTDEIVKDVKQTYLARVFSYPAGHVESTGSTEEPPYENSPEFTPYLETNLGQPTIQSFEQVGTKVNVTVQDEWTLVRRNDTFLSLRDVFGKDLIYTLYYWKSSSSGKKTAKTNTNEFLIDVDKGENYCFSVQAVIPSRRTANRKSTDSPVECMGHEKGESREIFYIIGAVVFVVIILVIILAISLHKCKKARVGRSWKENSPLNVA

[6] = biological target: T3, E. coli-derived TF ECD-His6 (Homo sapiens (Human), UniProt P13726 33-251); assay: protein ELISA, plate coated with E. coli-derived TF-His
T3 construct: The OmpA signal is not part of that entry; also called E.coli-derived TF protein; E. coli-derived TF-His

[7] = biological target: T4, Expi293-derived human TF ECD-His6 (TF-His) (human, UniProt P13726 33-251); assay: protein ELISA, plate coated with Expi293-derived TF-His
T4 construct: Glycosylated TF ECD-His6 made in Expi293 cells and coated on ELISA plates; also called Expi293-derived TF protein

[8] = biological target: T5, human Tissue Factor (hTF), endogenously expressed on human TF-positive cells (human, UniProt P13726 33-295); assay: flow cytometry competition on A431 cells, 100 nM unlabelled antibody, competitor 20 nM 25A-Alexa488
T5 construct: also called CD142

[9] = biological target: T5, human Tissue Factor (hTF), endogenously …; assay: flow cytometry competition on A431 cells, 100 nM unlabelled antibody, competitor 20 nM 43Ea-Alexa488
[10] = biological target: T5, human Tissue Factor (hTF), endogenously …; assay: cell-based or functional assay
Relipidated TF = Relipidated TF (UniProt P13726 33-295, limits assumed); assay: cell-based or functional assay
[11] = biological target: T1, human Tissue Factor on MDA-MB-231 cells; assay: flow cytometry, MDA-MB-231 cells; binding of 20 nM FVII-Fc-Alexa488 (competitor) left at 28 nM Ab

B1: 25A (antibody, V domains shown)
VH: QVQLVQSGAEVKKPGASVKVSCKASGYTFDVYGISWVRQAPGQGLEWMGWIAPYNGNTNYAQKLQGRVTMTTDTSTSTAYMELRSLRSDDTAVYYCARDAGTYSPFGYGMDVWGQGTTVTVSS
VL: DIQMTQSPSTLSASVGDRVTITCRASQSISSWLAWYQQKPGKAPKLLIYKASSLESGVPSRFSGSGSGTEFTLTISSLQPDDFATYYCQQFQSLPPFTFGGGTKVEIK
notes: Human anti-TF IgG1
% IL8, 2.56 nM Ab [1]: 43% | % IL8, 6.4 nM Ab [1]: 11% | % IL8, 16 nM Ab [1]: 10% | % IL8, 40 nM Ab [1]: 8% | % IL8, 100 nM Ab [1]: 9% | % FVIIa [2]: 97% | % FVIIa [3]: 98% | % FVIIa [4]: 100%

B2: anti-TF antibody 25A3 (antibody, human IgG1, kappa, V domains shown)
VH: B1 VH with N55S
VL: DIQMTQSPSTLSASVGDRVTITCQASQSINNWLAWYQQKPGKAPKLLIYKAYNLESGVPSRFSGSGSGTEFTLTISSLQPDDFATYYCQLFQSLPPFTFGGGTKVEIKR
notes: Human IgG1
EC50 [5]: 0.27 nM | EC50 [6]: 0.36 nM | EC50 [7]: 0.47 nM

B3: anti-TF antibody 25A (antibody, human IgG1, V domains shown)
VH: B1 VH
VL: B1 VL
notes: Human IgG1
EC50 [5]: 0.43 nM | % 25A binding [8]: 3% | % 43Ea binding [9]: 1% | % GM-CSF, 2.56 nM antibody, MDA-MB-231 cells + FVIIa [10]: 57% | % GM-CSF, 6.4 nM antibody, MDA-MB-231 cells + FVIIa [10]: 24% | % GM-CSF, 16 nM antibody, MDA-MB-231 cells + FVIIa [10]: 22% | % GM-CSF, 40 nM antibody, MDA-MB-231 cells + FVIIa [10]: 19% | % GM-CSF, 100 nM antibody, MDA-MB-231 cells + FVIIa [10]: 22% | EC50 [6]: 0.35 nM | EC50 [7]: 0.54 nM

B4: anti-TF antibody 25G (antibody, human IgG1, kappa, V domains shown)
VH: B1 VH with D30R, V31S, I51V, F106Y
VL: B2 VL with Q24R, N30S, N31S, Y52S, N53S, L90Q
notes: Human IgG1
% 25A binding [8]: 7% | % 43Ea binding [9]: 3% | % GM-CSF, 2.56 nM antibody, MDA-MB-231 cells + FVIIa [10]: 77% | % GM-CSF, 6.4 nM antibody, MDA-MB-231 cells + FVIIa [10]: 39% | % GM-CSF, 16 nM antibody, MDA-MB-231 cells + FVIIa [10]: 32% | % GM-CSF, 40 nM antibody, MDA-MB-231 cells + FVIIa [10]: 18% | % GM-CSF, 100 nM antibody, MDA-MB-231 cells + FVIIa [10]: 19%

B5: anti-TF antibody 25G1 (antibody, human IgG1, kappa, V domains shown)
VH: B1 VH with D30R, V31S, I51V, N55S, F106Y
VL: B2 VL with Q24R, Q27H, N30D, N31S, Y52S, N53Y
notes: Human IgG1
EC50 [5]: 0.27 nM | % GM-CSF, 2.56 nM antibody, MDA-MB-231 cells + FVIIa [10]: 48% | EC50 [6]: 0.31 nM | EC50 [7]: 0.42 nM

B6: anti-TF antibody 29E (antibody, human IgG1, V domains shown)
VH: QVQLVESGGGVVQPGRSLRLSCAASGFTFRSYGMHWVRQAPGKGLEWVAVITYDGINKYYADSVEGRFTISRDNSKNTLYLQMNSLRAEDTAVYYCARDGVYYGVYDYWGQGTLVTVSS
VL: not shown
notes: Human IgG1
EC50 [5]: 0.53 nM | % 25A binding [8]: 96% | % 43Ea binding [9]: 85% | % GM-CSF, 2.56 nM antibody, MDA-MB-231 cells + FVIIa [10]: 33% | % GM-CSF, 6.4 nM antibody, MDA-MB-231 cells + FVIIa [10]: 9% | % GM-CSF, 16 nM antibody, MDA-MB-231 cells + FVIIa [10]: 5% | % GM-CSF, 40 nM antibody, MDA-MB-231 cells + FVIIa [10]: 6% | % GM-CSF, 100 nM antibody, MDA-MB-231 cells + FVIIa [10]: 6% | EC50 [6]: 0.68 nM | EC50 [7]: 0.98 nM

B7: anti-TF antibody 54E (antibody, human IgG1, V domains shown)
VH: QVQLVQSGAEVKKPGASVKVSCKASGYTFANYYMHWVRQAPGQGLEWMGIINPSGGITVYAQKFQGRVTMTRDTSTSTVYMELSSLRSEDTAVYYCARGGSKVAALAFDIWGQGTMVTVSS
VL: DIQMTQSPSSLSASVGDRVTITCQASQDISNSLNWYQQKPGKAPKLLIYDASNLETGVPSRFSGSRSGTDFTFTISSLQPEDIATYYCQQYNFHPLTFGGGTKVEIK
notes: Human IgG1
EC50 [5]: 1.28 nM | % 25A binding [8]: 99% | % 43Ea binding [9]: 96% | % GM-CSF, 2.56 nM antibody, MDA-MB-231 cells + FVIIa [10]: 38% | % GM-CSF, 6.4 nM antibody, MDA-MB-231 cells + FVIIa [10]: 10% | % GM-CSF, 16 nM antibody, MDA-MB-231 cells + FVIIa [10]: 5% | % GM-CSF, 40 nM antibody, MDA-MB-231 cells + FVIIa [10]: 5% | % GM-CSF, 100 nM antibody, MDA-MB-231 cells + FVIIa [10]: 5% | EC50 [6]: 0.38 nM | EC50 [7]: 0.96 nM

B8: anti-TF antibody 39A (antibody, human IgG1, V domains shown)
VH: QVQLVQSGAEVKKPGSSVKVSCKASGGTFSSNAIGWVRQAPGQGLEWMGSIIPIIGFANYAQKFQGRVTITADESTSTAYMELSSLRSEDTAVYYCARDSGYYYGASSFGMDVWGQGTTVTVSS
VL: EIVMTQSPATLSVSPGERATLSCRASQSVSSNLAWYQQKPGQAPRLLIYGASTRATGIPARFSGSGSGTEFTLTISSLQSEDFAVYYCEQYNNLPLTFGGGTKVEIK
notes: Human IgG1
EC50 [5]: 0.27 nM | % 25A binding [8]: 99% | % GM-CSF, 2.56 nM antibody, MDA-MB-231 cells + FVIIa [10]: 42% | % GM-CSF, 6.4 nM antibody, MDA-MB-231 cells + FVIIa [10]: 8% | % GM-CSF, 16 nM antibody, MDA-MB-231 cells + FVIIa [10]: 5% | % GM-CSF, 40 nM antibody, MDA-MB-231 cells + FVIIa [10]: 5% | % GM-CSF, 100 nM antibody, MDA-MB-231 cells + FVIIa [10]: 7% | EC50 [6]: 0.34 nM | EC50 [7]: 0.45 nM

B9: 1F (antibody, V domains shown)
VH: EVQLLESGGGLVQPGGSLRLSCAASGFTFSDYAMGWVRQAPGKGLEWVSTISGSGGLTYYADSVKGRFTISRDNSKNTLYLQMNSLRAEDTAVYYCAKAPYGYYMDVWGKGTTVTVSS
VL: not shown
notes: Human anti-TF IgG1
% IL8, 2.56 nM Ab [1]: 18% | % IL8, 6.4 nM Ab [1]: 3% | % IL8, 16 nM Ab [1]: 2% | % IL8, 40 nM Ab [1]: 2% | % IL8, 100 nM Ab [1]: 2% | TGA % ETP, 10 nM Ab, 10 min pre-incubation (Relipidated TF): 31% | TGA % Peak IIa, 10 nM Ab, 10 min pre-incubation (Relipidated TF): 10% | TGA % Peak IIa, 50 nM Ab, 10 min pre-incubation (Relipidated TF): 7% | TGA % Peak IIa, 100 nM Ab, 10 min pre-incubation (Relipidated TF): 7% | TGA ETP, 10 nM Ab, 10 min pre-incubation (Relipidated TF): 540 nM·min | TGA Lag Time, 10 nM Ab, 10 min pre-incubation (Relipidated TF): 18.8 min | TGA Lag Time, 50 nM Ab, 10 min pre-incubation (Relipidated TF): 27.6 min | TGA Lag Time, 100 nM Ab, 10 min pre-incubation (Relipidated TF): 30.3 min | TGA Peak IIa, 10 nM Ab, 10 min pre-incubation (Relipidated TF): 27 nM | TGA Peak IIa, 50 nM Ab, 10 min pre-incubation (Relipidated TF): 20 nM | TGA Peak IIa, 100 nM Ab, 10 min pre-incubation (Relipidated TF): 17 nM | TGA ttPeak, 10 nM Ab, 10 min pre-incubation (Relipidated TF): 28.6 min | TGA ttPeak, 50 nM Ab, 10 min pre-incubation (Relipidated TF): 38.9 min | TGA ttPeak, 100 nM Ab, 10 min pre-incubation (Relipidated TF): 42 min | % FVIIa [11]: 7% | % FVIIa [2]: 7% | % FVIIa [3]: 6% | % FVIIa [4]: 7%

B10: anti-TF antibody 1F (antibody, human IgG1, V domains shown)
VH: B9 VH
VL: not shown
notes: Human IgG1
EC50 [5]: 0.17 nM | % 25A binding [8]: 95% | % 43Ea binding [9]: 77% | % GM-CSF, 2.56 nM antibody, MDA-MB-231 cells + FVIIa [10]: 27% | % GM-CSF, 6.4 nM antibody, MDA-MB-231 cells + FVIIa [10]: 8% | % GM-CSF, 16 nM antibody, MDA-MB-231 cells + FVIIa [10]: 6% | % GM-CSF, 40 nM antibody, MDA-MB-231 cells + FVIIa [10]: 6% | % GM-CSF, 100 nM antibody, MDA-MB-231 cells + FVIIa [10]: 6% | EC50 [6]: 0.32 nM | EC50 [7]: 0.41 nM
